Assay results published in patent US20240116985A1 (published 2024).
Starred links: 1 amine or outer side, 2 acyl side, 3 side chain; linkers in the order of their positions; H or OH if unused. Positions of bridges follow the written chain, without caps; N, C: chain ends. Non-standard residues stand in square brackets, D forms with d. Primed or numbered codes have the meaning given here. PyrS2″ = (S)-3-amino-1-((pent-4-en-1-yloxy)carbonyl)pyrrolidine-3-carboxylic acid (stapling residue), C=CCCCOC(=O)N1CC[C@@](N[*:1])(C(=O)[*:2])C1; (TfePpz)GlnR = (S)-2-amino-5-oxo-5-(4-(2,2,2-trifluoroethyl)piperazin-1-yl)pentanoic acid, O=C(CC[C@H](N[*:1])C(=O)[*:2])N1CCN(CC(F)(F)F)CC1; B5(4) = 2,2-bis(4-pentenyl)glycine = 2-amino-2-(pent-4-en-1-yl)hept-6-enoic acid (stitching residue), C=CCCCC(CCCC=C)(N[*:1])C(=O)[*:2]; TfeGA = (S)-2-amino-3-((carboxymethyl)(2,2,2-trifluoroethyl)amino)propanoic acid, O=C([C@H](CN(CC(=O)[*:3])CC(F)(F)F)N[*:1])[*:2]; PyrS2 = (S)-3-amino-1-((pent-4-en-1-yloxy)carbonyl)pyrrolidine-3-carboxylic acid, C=CCCCOC(=O)N1CC[C@@](N[*:1])(C(=O)[*:2])C1; B5(12) = 2-amino-2-(pent-4-en-1-yl)hept-6-enoic acid (two olefin side chains), C=CCCCC(CCCC=C)(N[*:1])C(=O)[*:2]; B5(19) = 2-amino-2-(pent-4-en-1-yl)hept-6-enoic acid (bis(4-pentenyl)glycine), C=CCCCC(CCCC=C)(N[*:1])C(=O)[*:2]; GA = (S)-2-amino-3-((carboxymethyl)amino)propanoic acid, O=C([C@H](CNCC(=O)[*:3])N[*:1])[*:2]; B5 = 2-amino-2-(pent-4-en-1-yl)hept-6-enoic acid, C=CCCCC(CCCC=C)(N[*:1])C(=O)[*:2]; 2NH2F″ = O=C([C@H](Cc1ccccc1N[*:3])N[*:1])[*:2]; Phe(3-CONH2) = NC(=O)c1cccc(C[C@H](N)C(=O)O)c1; Phe(3-COOH) = N[C@@H](Cc1cccc(C(=O)O)c1)C(=O)O; Phe(2-Cl) = N[C@@H](Cc1ccccc1Cl)C(=O)O; Phe(2-Me) = Cc1ccccc1C[C@H](N)C(=O)O; Bta = N[C@@H](Cc1csc2ccccc12)C(=O)O; Lys(iPr) = CC(C)NCCCC[C@H](N)C(=O)O; αAllylPro = C=CC[C@@]1(C(=O)O)CCCN1; tBuAla = CC(C)(C)C[C@H](N)C(=O)O; 3Thi = N[C@@H](Cc1ccsc1)C(=O)O; Cha = N[C@@H](CC1CCCCC1)C(=O)O; PyrS2(4) = not defined here; hSer = N[C@@H](CCO)C(=O)O; Nle = CCCC[C@H](N)C(=O)O; Aib = CC(C)(N)C(=O)O

T1: B-cat-Halo (beta-catenin HaloTag construct transfected into HEK293 cells) (UniProt P35222 1-781)
T1 sequence (looked up): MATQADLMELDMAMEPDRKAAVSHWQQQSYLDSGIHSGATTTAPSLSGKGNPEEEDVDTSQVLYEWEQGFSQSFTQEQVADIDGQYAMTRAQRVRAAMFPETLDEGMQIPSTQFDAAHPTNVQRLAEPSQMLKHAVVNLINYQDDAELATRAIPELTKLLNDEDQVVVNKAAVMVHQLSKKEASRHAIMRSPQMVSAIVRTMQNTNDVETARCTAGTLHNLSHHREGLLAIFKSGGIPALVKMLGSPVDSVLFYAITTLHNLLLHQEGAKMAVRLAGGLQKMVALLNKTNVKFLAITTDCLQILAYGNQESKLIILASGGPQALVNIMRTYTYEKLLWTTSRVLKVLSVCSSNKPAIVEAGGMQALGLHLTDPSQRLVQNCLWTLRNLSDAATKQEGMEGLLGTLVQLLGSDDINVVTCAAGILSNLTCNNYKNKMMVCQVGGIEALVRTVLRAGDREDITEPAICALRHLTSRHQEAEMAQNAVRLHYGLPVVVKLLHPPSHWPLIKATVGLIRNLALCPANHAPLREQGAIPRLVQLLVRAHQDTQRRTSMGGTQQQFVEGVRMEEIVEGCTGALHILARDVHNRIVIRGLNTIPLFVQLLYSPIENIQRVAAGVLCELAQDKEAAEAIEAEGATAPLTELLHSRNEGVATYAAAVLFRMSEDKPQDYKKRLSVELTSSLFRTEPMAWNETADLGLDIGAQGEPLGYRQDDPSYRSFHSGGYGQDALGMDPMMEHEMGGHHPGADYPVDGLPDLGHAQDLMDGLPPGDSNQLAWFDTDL

T2: B-cat-Halo (beta-catenin HaloTag fusion expressed in HEK293 cells) (UniProt P35222 1-781)
T2 sequence (looked up): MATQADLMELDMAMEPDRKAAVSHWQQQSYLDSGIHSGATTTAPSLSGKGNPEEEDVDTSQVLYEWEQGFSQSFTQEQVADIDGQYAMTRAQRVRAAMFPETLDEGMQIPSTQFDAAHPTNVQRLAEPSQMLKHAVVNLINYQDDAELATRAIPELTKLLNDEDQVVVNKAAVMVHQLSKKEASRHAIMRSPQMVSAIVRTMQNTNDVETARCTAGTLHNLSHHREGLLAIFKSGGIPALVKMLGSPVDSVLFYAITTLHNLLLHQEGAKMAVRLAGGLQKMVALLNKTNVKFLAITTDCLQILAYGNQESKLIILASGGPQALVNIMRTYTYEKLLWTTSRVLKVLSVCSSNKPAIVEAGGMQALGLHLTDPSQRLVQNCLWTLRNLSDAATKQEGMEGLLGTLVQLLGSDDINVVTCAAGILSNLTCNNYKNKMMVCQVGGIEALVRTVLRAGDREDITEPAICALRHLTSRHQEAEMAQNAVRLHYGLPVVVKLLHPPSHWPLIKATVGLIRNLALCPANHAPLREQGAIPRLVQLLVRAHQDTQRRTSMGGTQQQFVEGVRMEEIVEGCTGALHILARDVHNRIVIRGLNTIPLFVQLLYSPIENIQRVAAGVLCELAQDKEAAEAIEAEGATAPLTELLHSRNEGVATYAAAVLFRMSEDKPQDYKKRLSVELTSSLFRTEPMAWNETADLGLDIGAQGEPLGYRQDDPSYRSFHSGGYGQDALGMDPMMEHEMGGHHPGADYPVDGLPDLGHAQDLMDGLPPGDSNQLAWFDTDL


biological target: T1, B-cat-Halo (beta-catenin HaloTag …); assay: cell-based or functional assay

| NanoBRET Abs IC50 | Binder |
| --- | --- |
| 37.7 µM | Ac-[αAllylPro]D[tBuAla][B5(4)]D[Phe(3-COOH)]KAFL[PyrS2(4)][3Thi][Bta]A-NH2 (staple 1-4, 4-11; not fully specified; printed as Ac-PL3-Asp-Npg-B5-Asp-3COOHF-Lys-Ala-Phe-Leu-PyrS2-3Thi-BztA-Ala-NH2; reading uncertain) [I-1917] |
| 7.1 µM | Ac-[αAllylPro]D[tBuAla][B5(19)]D[TfeGA]AAF[(TfePpz)GlnR][PyrS2″][3Thi][Bta]Q-NH2 (staple 1-4, 4-11) [I-1935] |
| 4.7 µM | Ac-[αAllylPro]D[tBuAla][B5(4)]D[Phe(3-COOH)][Nle]AFL[PyrS2(4)][3Thi][Bta]A-NH2 (staple 1-4, 4-11; not fully specified; printed as Ac-PL3-Asp-Npg-B5-Asp-3COOHF-nLeu-Ala-Phe-Leu-PyrS2-3Thi-BztA-Ala-NH2; reading uncertain) [I-1919] |
| > 20 µM | Ac-[αAllylPro]N[Cha][B5(19)]DQ[Lys(iPr)]AFN[PyrS2″][Phe(3-CONH2)][Bta][hSer]-NH2 (staple 1-4, 4-11) [I-1929] |

More lines, now with the values behind:

| Binder | NanoBRET Abs IC50 |
| --- | --- |
| Ac-[αAllylPro]D[tBuAla][B5(4)]D[Phe(3-COOH)][Lys(iPr)]AFL[PyrS2(4)][3Thi][Bta]A-NH2 (staple 1-4, 4-11; not fully specified; printed as Ac-PL3-Asp-Npg-B5-Asp-3COOHF-iPrLys-Ala-Phe-Leu-PyrS2-3Thi-BztA-Ala-NH2; reading uncertain) [I-1915] | 20.2 µM |
| Ac-[αAllylPro]D[tBuAla][B5(4)]D[Phe(3-COOH)]HAFL[PyrS2(4)][3Thi][Bta]A-NH2 (staple 1-4, 4-11; not fully specified; printed as Ac-PL3-Asp-Npg-B5-Asp-3COOHF-His-Ala-Phe-Leu-PyrS2-3Thi-BztA-Ala-NH2; reading uncertain) [I-1916] | 9.2 µM |
| Ac-[αAllylPro]D[tBuAla][B5(12)]D[Phe(3-COOH)][Aib]AFL[PyrS2(4)][3Thi][Bta]F-NH2 (staple 1-4, 4-11; not fully specified; printed as Ac-PL3-Asp-Npg-B5-Asp-3COOHF-Aib-Ala-Phe-Leu-PyrS2-3Thi-BztA-Phe-NH2; reading uncertain) [I-1914] | 6.4 µM |
| Ac-[αAllylPro]D[tBuAla][B5(12)]D[Phe(3-COOH)][Nle]AFL[PyrS2(4)][3Thi][Bta]F-NH2 (staple 1-4, 4-11; not fully specified; printed as Ac-PL3-Asp-Npg-B5-Asp-3COOHF-nLeu-Ala-Phe-Leu-PyrS2-3Thi-BztA-Phe-NH2; reading uncertain) [I-1913] | 17.5 µM |

biological target: T2, B-cat-Halo (beta-catenin HaloTag fusion …); assay: cell-based or functional assay

| NanoBRET Abs IC50 | Binder |
| --- | --- |
| 34.1 µM | Ac-[αAllylPro]D[tBuAla][B5(4)]DDAA[2NH2F″]N[PyrS2(4)][Phe(2-Cl)][Bta]Q-NH2 (staple 1-4, 4-11; not fully specified; reading uncertain) [I-1727] |
| > 20 µM | Ac-[αAllylPro]D[tBuAla][B5]D[GA]AAFN[PyrS2][3Thi][Bta]Q-NH2 (staple 1-4, 4-11) [I-1733] |
| > 20 µM | Ac-[αAllylPro]D[tBuAla][B5(4)]D[GA]AAFN[PyrS2(4)][3Thi][Bta]Q-NH2 (staple 1-4, 4-11; not fully specified; reading uncertain) [I-1732] |
| > 20 µM | Ac-[αAllylPro]D[tBuAla][B5]D[TfeGA]AAFL[PyrS2][Phe(2-Me)][Bta]Q-NH2 (staple 1-4, 4-11; also: -CH=CH- in each staple reduced to -CH2-CH2-) [I-1726] |
| 29.5 µM | Ac-[αAllylPro]D[tBuAla][B5]D[GA]AAFL[PyrS2][3Thi][Bta]Q-NH2 (staple 1-4, 4-11) [I-1731] |
